One assay concerns the target PCSK9 (UniProt Q8NBP7). In words: cell-based or functional assay.
In assay [1] the target is human GLP-1 receptor (human) (UniProt P43220). Nature of the assay: cell-based or functional assay.
human GLP-1 receptor (human), sequence (P43220 24-463): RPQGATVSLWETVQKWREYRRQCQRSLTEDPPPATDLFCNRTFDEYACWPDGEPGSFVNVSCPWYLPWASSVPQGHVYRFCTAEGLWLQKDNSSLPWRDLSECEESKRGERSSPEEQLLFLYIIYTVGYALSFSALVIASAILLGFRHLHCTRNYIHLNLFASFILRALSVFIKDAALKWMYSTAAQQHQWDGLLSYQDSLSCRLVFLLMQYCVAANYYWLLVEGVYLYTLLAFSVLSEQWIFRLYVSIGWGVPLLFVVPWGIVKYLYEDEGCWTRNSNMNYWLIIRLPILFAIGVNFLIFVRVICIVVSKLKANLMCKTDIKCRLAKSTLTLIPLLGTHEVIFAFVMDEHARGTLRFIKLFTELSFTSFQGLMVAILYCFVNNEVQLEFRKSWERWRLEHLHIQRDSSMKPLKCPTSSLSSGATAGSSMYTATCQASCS

Regarding Alirocumab (antibody), the LDL-R expression in mouse liver, Percentage of baseline (%), dose of inhibitor 22 nmol/kg with PCSK9 amounted to 157%.
With Semaglutide (peptide), in assay [1], the EC50 (pM) 0% HSA is 7.3 pM and the EC50 (pM) 1% HSA was determined as 210 pM.
